Among the data in publication PMC7138024 (Journal of natural products, 2014) are IC50 values, retold here.

For this assay, the target named is cruzain (Trypanosoma cruzi, UniProt P25779). The assay is classed as biochemical. The following applies: read-out: IC50 (μM) cruzain; triplicate; phosphate buffer pH 6.3, 37 °C.
Chain of cruzain (P25779 123-467): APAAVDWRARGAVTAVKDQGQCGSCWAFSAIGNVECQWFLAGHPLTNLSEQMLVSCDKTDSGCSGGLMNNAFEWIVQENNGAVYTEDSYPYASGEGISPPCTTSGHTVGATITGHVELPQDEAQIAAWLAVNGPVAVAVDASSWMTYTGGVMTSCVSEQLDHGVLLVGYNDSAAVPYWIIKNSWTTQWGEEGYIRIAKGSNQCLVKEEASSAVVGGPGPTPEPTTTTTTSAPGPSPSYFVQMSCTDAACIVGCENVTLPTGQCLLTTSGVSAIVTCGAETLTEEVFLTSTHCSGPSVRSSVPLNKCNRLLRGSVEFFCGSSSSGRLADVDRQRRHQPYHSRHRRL

B1: cystatin (protein)
chain: SEDRSRLLGAPVPVDENDEGLQRALQFAMAEYNRASNDKYSSRVVRVISAKRQLVSGIKYILQVEIGRTTCPKSSGDLQSCEFHDEPEMAKYTTCTFVVYSIPWLNQIKLLESKCQ
modifications: two disulfides; Limits are the mature chain
Consider B1, for which the IC50 stood at 0.0085 ± 0.025 µM.
